Reference: patent publication CN113117073A

Columns and labels:
[1] = target: PD-L1 (antigen of the indirect ELISA for titre; not specified); experiment: indirect ELISA, ascites antibody
人PD-L1-His (human) = 人PD-L1-His (human) (UniProt Q9NZQ7); experiment: SPR; PD-L1-His captured by anti-His antibody on a CM5 chip, antibody as analyte 0-1000 nmol/L, 1:1 binding fit

PD-L1 (antigen of the indirect ELISA for titre; not specified), sequence (Q9NZQ7 whole entry): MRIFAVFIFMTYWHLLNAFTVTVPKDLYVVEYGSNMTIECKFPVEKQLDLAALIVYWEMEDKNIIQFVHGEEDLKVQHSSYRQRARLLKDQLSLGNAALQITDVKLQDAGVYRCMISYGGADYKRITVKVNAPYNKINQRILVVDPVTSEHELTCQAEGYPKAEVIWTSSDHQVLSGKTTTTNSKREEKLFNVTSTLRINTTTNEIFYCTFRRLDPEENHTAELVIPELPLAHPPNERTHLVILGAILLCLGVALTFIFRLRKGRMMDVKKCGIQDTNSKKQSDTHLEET

腹水效价 (ascites titre) (titre (1:x dilution)) [1]: 2.56e+06
Kd (人PD-L1-His (human)): 4.19 nM
B1: PD-L1单克隆抗体 1A7 (antibody, part only; not given: light chain variable domain, V domains shown, part only)
VH: EVKLVESGGGLVKPGGSLKLSCAASGFTFSQTTMAWVRQIPEKRLEWVASIEEGGSCCFPDSALSRFTISRDNARNICYLQMNSLRSDDTAMYYCARAREACAGYFARWGQGTTLTVSS
